Data on eleven molecules can be found in US20190202901A1 (PIERRE FABRE MEDICAMENT, published 2019).

As usually defined, the Kd is the free concentration of one partner at which half of the binding sites on the other are occupied at equilibrium, for simple one-to-one binding.

Numbering of substitutions follows the chain as printed. Some results are limits rather than exact numbers.

B1: m208F2 (murine 208F2, hybridoma CNCM I-4757) (antibody, V domains shown)
VH: QVQLQQSGPELVKPGASVKMSCKASGYTFTSYYIYWVKQRPGQGLEWLGWIWPGDGSTKYNEKFKDKTTLTADKSSNTAYMFLSSLTSEDSAVYFCASPMITPNYAMDYWGQGASVTVSS
VL: DIQMTQTTSSLSASLGDRVTISCRASQDISKYLNWYQQQPDGTIKLLIYYTSRLHSGVPSRFSGRGSGTDYSLTISNVEQEDIATYFCQQGSTLPYTFGGGTKLEIK
B2: m214F8 (murine 214F8, hybridoma CNCM I-4775) (antibody, V domains shown)
VH: B1 VH with P9S, M20L, Y35H, L48I, K63R, D66G, N77S
VL: B1 VL with I21F, S76T, V78L, T93A
B3: m213B10 (murine 213B10, hybridoma CNCM I-4774) (antibody, V domains shown)
VH: B1 VH with P9S, Y35H, L48I, K63R, D66G, N77S
VL: B1 VL with S76T, V78L, T93A
B4: c212A11 (antibody, human IgG1, kappa, V domains shown)
VH: B1 VH with Y35H, L48I, D66G, N77S
VL: DIQMTQTTSSLSASLGDRVTISCRASQDINKYLNWYQQQPDGTVKLLIYYTSRLHSGVPSRFSGRGSGTDYSLTISNLEQEDIATYFCQQGSTLPYTFGGGTKLEIKR
notes: also called chimeric 212A11
B5: c219D6 (antibody, human IgG1, kappa, V domains shown)
VH: B1 VH with A16D, T28S, Y33F, Y35H, L48I, D66G, A72T, N77S, S84N
VL: B4 VL with N30S
notes: also called chimeric 219D6
B6: c214F8 (antibody, human IgG1, kappa)
heavy: not shown
light: DIQMTQTTSSLSASLGDRVTFSCRASQDISKYLNWYQQQPDGTIKLLIYYTSRLHSGVPSRFSGRGSGTDYSLTITNLEQEDIATYFCQQGSALPYTFGGGTKLEIKRTVAAPSVFIFPPSDEQLKSGTASVVCLLNNFYPREAKVQWKVDNALQSGNSQESVTEQDSKDSTYSLSSTLTLSKADYEKHKVYACEVTHQGLSSPVTKSFNRGEC
notes: also called chimeric 214F8
B7: c213B10 (antibody, human IgG1, kappa)
heavy: not shown
light: B6 light with F21I
notes: also called chimeric 213B10
B8: m212A11 (murine 212A11, hybridoma CNCM I-4773) (antibody, V domains shown)
VH: B1 VH with Y35H, L48I, D66G, N77S
VL: B1 VL with S30N, I44V, V78L
B9: m219D6 (murine 219D6, hybridoma CNCM I-4736) (antibody, V domains shown)
VH: B1 VH with A16D, T28S, Y33F, Y35H, L48I, D66G, A72T, N77S, S84N
VL: B1 VL with I44V, V78L
B10: 816C12 (antibody, V domains shown)
VH: EVQLQQSGPELVKPGASVKMSCKASGHTFTSYVLHWMKRKPGQGLEWIGYINPHNDVTKYNENFKGKATLTSDKYSSTVYMEVSSLTSEDSAVYYCVSTAYYGNGRYFDVWGAGTTVTVSS
VL: B1 VL with S30N, K31N, Q39K, I44V, P59S, R65S, V78L, S92N, Y96W
notes: Murine monoclonal antibody from hybridoma CNCM I-4894; also called m816C12; I-4894
B11: 810D12 (antibody, V domains shown)
VH: EVQLQQSGPELVKPGASVKMSCKASGHTFTSYMLHWVKQKPGQGLEWLGFINPYNDVTKYNENFKGKATLTSDKSSSTAYMELNSLTSEDSAVYFCVTTAYYGNGRYFDVWGAGTTVTVSS
VL: DIQMTQTTSSLSASLGDRVTISCRASQDITNYLTWYQQKPDGTVKVLIYYTSRLYSGVPSRFSGSGSGSDYSLTINNLEQEDIATYFCQQGYSLPWTFGGGTKLEIK
notes: Murine monoclonal antibody from hybridoma CNCM I-4893; also called m810D12; I-4893

For one test, the target named is T1, human IGF-1R, native, on cells (MCF-7, hIGF-1R transfected cells, tumor sections, primary normal cells) (human, UniProt P08069 31-1367). Put plainly: cell-based or functional assay.
Take B1: the “MFI 37°C (MCF7 internalisation assay)” value was 94 MFI.
On the same count and under the same terms, as for B2, the figure is 111 MFI; as for B3, 115 MFI.

The target of another test is T1, human IGF-1R, native, on cells (MCF-7, …). Put plainly: cell-based or functional assay. The source holds these as a separate data set.
Take B4: the “ΔMFI (MCF-7, 10 µg/ml, 4 h)” value amounted to 322 MFI.
Still for that read-out and setting: as for B5, the figure is 353 MFI.
On the same count and under the same terms, as for B6, the figure is 403 MFI; as for B7, 369 MFI.

A further test concerns the target monkey IGF-1R on COS-7 cells (monkey (African green monkey)). Put plainly: cell-based or functional assay.
On to B8, for which the “% internalisation (monkey IGF-1R)” value came out at 73% and the “ΔMFI (monkey IGF-1R internalization)” value was 83 MFI.
Taken in the same sequence, the figures for B4 were 75% and 98 MFI.
B1: the “% internalisation (monkey IGF-1R)” value turned out to be 74% and the “ΔMFI (monkey IGF-1R internalization)” value is 53 MFI.
The like results for B2 were, in that order, 71% and 76 MFI.
Taken in the same sequence, the figures for B9 were 71% and 80 MFI.
B5: the “% internalisation (monkey IGF-1R)” value stood at 74% and the “ΔMFI (monkey IGF-1R internalization)” value amounted to 102 MFI.
B3: the “% internalisation (monkey IGF-1R)” value amounted to 74% and the “ΔMFI (monkey IGF-1R internalization)” value stood at 84 MFI.
Taken in the same sequence, the figures for B6 were 72% and 98 MFI.
Taken in the same sequence, the figures for B7 were 73% and 101 MFI.

A further test deals with T1, human IGF-1R, native, on cells (MCF-7, …). The test can be described thus: cell-based or functional assay. This is another data set of the same source.
Turning to B8, the “decrease of IGF1-induced phosphorylation of hIGF-1R (MCF-7 cells)” value (“decrease” for short) came to 80%.
On to B4, for which the “phosphorylation of hIGF-1R, % of phosphorylation induced by IGF-1 (MCF-7 cells, 10 µg/ml)” value was less than 10%.
For the molecule B1, the “decrease” value was found to be 80%.
The same measure, in the same setting: as for B2, the figure is 80%.
Still for that read-out and setting: as for B9, the figure is 80%.
In the case of B5, the “phosphorylation of hIGF-1R, % of phosphorylation induced by IGF-1 (MCF-7 cells, 10 µg/ml)” value is less than 10%.
B3: the “decrease” value stood at 80%.
For B6, the “phosphorylation of hIGF-1R, % of phosphorylation induced by IGF-1 (MCF-7 cells, 10 µg/ml)” value is less than 10%.
On the same count and under the same terms, as for B7, the figure is less than 10%.

The target is the same in a further test. Put plainly: cell-based or functional assay. This is another data set of the same source.
B1: the “% internalization (MCF-7, 10 µg/ml, 4 h)” value amounted to 88% and the “ΔMFI (MCF-7, 10 µg/ml, 4 h)” value is 294 MFI.

Another test deals with T2, soluble recombinant human IGF-1R hetero-tetramer with C-terminal 10-His tag (R&D Systems 305-GR-50) (human, UniProt P08069 31-736; P08069 741-932).
T2 construct: domain: alpha chain;domain: extracellular domain of the beta chain; Captured on an anti-His antibody chip; also called recombinant soluble human-IGF-1R; h-IGF-1R
The test can be described thus: SPR Biacore X100, His-captured soluble h-IGF-1R (about 600 RU), mean of 4 experiments. The protocol:
The dissociation constants (KD) of the binding of the antibodies on a recombinant soluble human-IGF-1R were defined by the ratio between the dissociation rate (koff) and the association rate (kₒₙ). The kinetic experiments were run on a Biacore X100 device using a CM5 sensor chip activated by a mouse anti-Tag His monoclobnal antibody. Around 12000 RU of antibodies are chemically grafted on the carboxymethyldextan matrix using the amine kit chemistry.
The experiments were carried out at 25° C. with a flow rate of 30 μl/min using the HBS-EP+ buffer (GE Healthcare) as the running and sample dilution buffer.
The single cycle kinetic scheme was used to define the kinetic parameters of the binding of the anti-IGF-1R antibodies on a soluble recombinant human IGF-1R captured by its two C-terminal 10 Histidine-tag. [0637] 1—A solution of a soluble recombinant version of the human IGF-1R hetero-tetramere: 2a chains and the extracellular domains of 2β chains expressed with an additional C-terminal 10-His tag (R&D Systems catalogue number 305-GR-50) was injected during one minute on the second flowcell at a concentration of 10 μg/ml. […] [0638] 2—After the capture phase, either the running buffer was injected 5 times (90 s each injection) or a growing range of 5 concentrations of one of the six antibodies was injected (90 s each injection) on both flowcells. At the end of the fifth injection the running buffer was passed during 5 minutes in order to define the dissociation rate. [0639] 3—The surface was then generated with an injection of a 10 mM Glycine, HCl pH 1.5 buffer during 45 s.
Background: SPR reads the build-up and loss of mass on a sensor chip optically.
For B4, the Kd is roughly 0.03 nM.
B5: the Kd is roughly 0.03 nM.
Regarding B6, the Kd is roughly 0.03 nM.
Same read-out and setting: as for B7, the figure is roughly 0.03 nM.

The target of the next test is T3, recombinant human Insulin Receptor protein (R&D Systems, Cat 1544-IR/CF) (human, UniProt P06213-2 28-944).
T3 construct: Bought protein coated on ELISA plates; also called rhIR; rh Insulin R
T3 sequence (P06213 other isoform, or with tags, fused parts or gaps limits assumed): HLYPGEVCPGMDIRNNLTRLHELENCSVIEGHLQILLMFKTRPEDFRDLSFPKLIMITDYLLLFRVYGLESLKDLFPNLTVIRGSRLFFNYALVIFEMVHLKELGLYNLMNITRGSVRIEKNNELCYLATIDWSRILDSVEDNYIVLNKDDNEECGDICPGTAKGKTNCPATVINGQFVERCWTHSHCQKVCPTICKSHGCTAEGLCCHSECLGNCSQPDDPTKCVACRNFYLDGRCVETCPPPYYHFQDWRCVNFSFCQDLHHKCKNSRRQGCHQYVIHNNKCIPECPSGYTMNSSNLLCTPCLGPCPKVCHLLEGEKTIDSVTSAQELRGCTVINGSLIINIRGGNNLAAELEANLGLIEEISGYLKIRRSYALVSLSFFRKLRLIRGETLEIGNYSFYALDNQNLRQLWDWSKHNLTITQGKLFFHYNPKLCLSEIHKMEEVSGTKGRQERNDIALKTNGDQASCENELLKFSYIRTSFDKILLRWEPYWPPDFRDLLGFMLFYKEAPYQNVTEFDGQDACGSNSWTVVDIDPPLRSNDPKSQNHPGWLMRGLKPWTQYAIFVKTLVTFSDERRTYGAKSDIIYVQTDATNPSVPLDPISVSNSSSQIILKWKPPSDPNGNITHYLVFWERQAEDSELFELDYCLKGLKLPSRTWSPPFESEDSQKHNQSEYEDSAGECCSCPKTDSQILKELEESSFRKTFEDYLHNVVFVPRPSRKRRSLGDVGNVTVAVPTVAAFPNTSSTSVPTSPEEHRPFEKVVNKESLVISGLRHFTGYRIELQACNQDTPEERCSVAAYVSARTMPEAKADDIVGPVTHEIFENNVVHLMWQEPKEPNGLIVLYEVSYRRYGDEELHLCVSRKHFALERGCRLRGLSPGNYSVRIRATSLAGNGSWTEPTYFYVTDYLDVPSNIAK
The test can be described thus: direct ELISA, coated rhIR. The protocol: In all direct ELISAs, proteins of interest were immobilized (1 μg/ml) to the bottom of each well. After saturation, hybridoma supernatants were added to the wells. After a 1-hour incubation period and a washing step, a solution of goat anti-mouse IgG—HRP labelled polyclonal antibody was used for detection, prior to the addition of the TMB substrate. The reaction was stopped with a 1M H₂SO₄ solution before reading the OD with a spectrophotometer at a 450 nm wavelength.
B10: the binding result was “no binding (tested: 5 µg/ml)”.
The same measure, in the same setting: as for B11, the entry is “no binding (tested: 5 µg/ml)”.
